The values below come from paper PMC3364216, “The RuvA Homologues from Mycoplasma genitalium and Mycoplasma pneumoniae Exhibit Unique Functional Characteristics”.

The target in the data set is RuvAMge;RecUMge (Mycoplasma genitalium G37 (ATCC …, UniProt Q49424;Q49422 1-205;1-166, |)). Kind of data set: EMSA; 0.5 uM RecUMge preincubated, then RuvAMge; all RecU-HJ complexes shifted at 4 uM; 20 mM Tris-HCl pH 7.5, 1 mM DTT, 1 mM EDTA, 12.3 nM DNA, 10 ul, on ice 10 min; 8% PAGE in 0.5x TBE; +/- 10 mM Mg2+.

B1: HJ 1.1 (structured_DNA)
DNA 1: GCGACGTGATCACCAGATGATTGCTAGGCATGCTTTCCGCAAGAGAAGC
DNA 2: GGCTTCTCTTGCGGAAAGCATGCCTAGCAATCCTGTCAGCTGCATGGAAC
DNA 3: GGTTCCATGCAGCTGACAGGATTGCTAGGCTCAAGGCGAACTGCTAACGG
DNA 4: ACCGTTAGCAGTTCGCCTTGAGCCTAGCAATCATCTGGTGATCACGTCGC
For B1, the binding result is recorded as “binds”.
